{"source": "patent US8691960B2", "about": "“Oxidoreductases for enantioselective reactions” (Duke University, priority 2012, dated 2014)", "molecules": {"B1": {"name": "ScHIDH-R143K: Saccharomyces cerevisiae homoisocitrate dehydrogenase R143K mutant (protein)", "chain": "MFRSVATRLSACRGLASNAARKSLTIGLIPGDGIGKEVIPAGKQVLENLNSKHGLSFNFIDLYAGFQTFQETGKALPDETVKVLKEQCQGALFGAVQSPTTKVEGYSSPIVALRREMGLFANVRPVKSVEGEKGKPIDMVIVKENTEDLYIKIEKTYIDKATGTRVADATKRISEIATRRIATIALDIALKRLQTRGQATLTVTHKSNVLSQSDGLFREICKEVYESNKDKYGQIKYNEQIVDSMVYRLFREPQCFDVIVAPNLYGDILSDGAAALVGSLGVVPSANVGPEIVIGEPCHGSAPDIAGKGIANPIATIRSTALMLEFLGHNEAAQDIYKAVDANLREGSIKTPDLGGKASTQQVVDDVLSRL", "modifications": "ScHIDH R143K polypeptide", "notes": "Saccharomyces cerevisiae homoisocitrate dehydrogenase R143K mutant"}, "B2": {"name": "ScHIDH-R143C: Saccharomyces cerevisiae homoisocitrate dehydrogenase R143C mutant (protein)", "chain": "B1 chain with K143C", "modifications": "ScHIDH R143C polypeptide", "notes": "Saccharomyces cerevisiae homoisocitrate dehydrogenase R143C mutant"}, "B3": {"name": "ScHIDH-Y150D: Saccharomyces cerevisiae homoisocitrate dehydrogenase Y150D mutant (protein)", "chain": "B1 chain with K143R, Y150D", "modifications": "ScHIDH Y150D polypeptide", "notes": "Saccharomyces cerevisiae homoisocitrate dehydrogenase Y150D mutant"}, "B4": {"name": "ScHIDH-R114Q: Saccharomyces cerevisiae homoisocitrate dehydrogenase R114Q mutant (protein)", "chain": "B1 chain with R114Q, K143R", "modifications": "ScHIDH R114Q polypeptide", "notes": "Saccharomyces cerevisiae homoisocitrate dehydrogenase R114Q mutant"}, "B5": {"name": "ScHIDH-V111D: Saccharomyces cerevisiae homoisocitrate dehydrogenase V111D mutant (protein)", "chain": "B1 chain with V111D, K143R", "modifications": "ScHIDH V111D polypeptide", "notes": "Saccharomyces cerevisiae homoisocitrate dehydrogenase V111D mutant"}, "B6": {"name": "ScHIDH-R115Q: Saccharomyces cerevisiae homoisocitrate dehydrogenase R115Q mutant (protein)", "chain": "B1 chain with R115Q, K143R", "modifications": "ScHIDH R115Q polypeptide", "notes": "Saccharomyces cerevisiae homoisocitrate dehydrogenase R115Q mutant"}, "B7": {"name": "TtHIDH-R118H: Thermus thermophilus homoisocitrate dehydrogenase R118H mutant (protein)", "chain": "MAYRICLIEGDGIGHEVIPAARRVLEATGLPLEFVEAEAGWETFERRGTSVPEETVEKILSCHATLFGAATSPTRKVPGFFGAIRYLRRRLDLYANVRPAKSRPVPGSRPGVDLVIVHENTEGLYVEQERRYLDVAIADAVISKKASERIGRAALRIAEGRPRKTLHIAHKANVLPLTQGLFLDTVKEVAKDFPLVNVQDIIVDNCAMQLVMRPERFDVIVTTNLLGDILSDLAAGLVGGLGLAPSGNIGDTTAVFEPVHGSAPDIAGKGIANPTAAILSAAMMLDYLGEKEAAKRVEKAVDLVLERGPRTPDLGGDATTEAFTEAVVEALKSL", "modifications": "TtHIDH R118H polypeptide", "notes": "Thermus thermophilus homoisocitrate dehydrogenase R118H mutant"}}, "format_in_all_cases": "biochemical", "key": {"[1]": {"test": "Enantiospecific LC-MS/MS quantification of (R)- and (S)-2-hydroxyadipate product", "conditions": "for Enantiomeric Excess: Table 3, (R)-2-hydroxyadipate product", "method": "Quantitative, enantiospecific LC-MS/MS was performed based on the procedure described for 2-hydroxyglutarate. Jin et al., PLoS one 6, e16812: 1-8 (2011); Struys, et al., Clin. Chem. 50: 1391-1395 (2004). To 20 μL of reaction mix, 2 μL of 130 μg/mL of a racemic mixture of [3,3,4,4-^2H4]-2-hydroxyglutarate (internal standard) in water was added and the mixture dried by vacuum centrifuge (50° C., 15 min). The dry residue was treated with 50 mg/mL freshly prepared diacetyl-L-tartaric anhydride (Sigma) in dichloromethane/glacial acetic acid (4:1 by volume) and heated (75° C., 30 min). After drying (50° C., 15 min) the residue was dissolved in 100 μL of LC mobile phase A (see below) for analysis. An Agilent 1200 series HPLC (Santa Clara, Calif.) was used for liquid chromatography (LC) and a Sciex/Applied Biosystems API 3200 QTrap (Carlsbad, Calif.) was used for triple quadrupole mass spectrometry (MS/MS). Mobile phase A: water, 3% acetonitrile, 280 μL ammonium hydroxide (^˜25%), pH adjusted to 3.6 with formic acid (^˜98%). Mobile phase B: methanol. Analytical column: Kinetex C-18, 150×4.6 mm, 2.6 μm, and SafeGuard C-18 4×3 mm guard-column from Phenomenex (Torrance, Calif.). Column temperature: 45° C. Elution gradient at 1 mL/min flow rate: 0-1 min 0% B, 1-2 min 0-100% B, 2-3.5 min 100% B, 3.5-4 min 100-0% B, 4-10 min 0% B. Injection volume: 10 μL. Q1/Q3 (m/z) transitions were monitored: 377/161, 2-hydroxyadipate (2HA) and 367/151, [3,3,4,4-^2H4]-2-hydroxyglutarate (2HG-d4). To calibrate, 0, 0.16, 0.54, 1.8, 6, and 20 μg/mL 2-hydroxyadipate (Sigma), synthesized as described above, was analyzed in reaction buffer. (R)- and (S)-enantiomers were discriminated based on time of elution from the HPLC column, using the relative elution time for (R)-2-hydroxyglutarate compared to the racemic mixture of 2-hydroxyglutarate described previously to identify the (R)-2-hydroxyadipate enantiomer. Jin et al., PLoS one 6, e16812: 1-8 (2011). Standards were analyzed alongside experimental samples. Accuracy acceptance criteria were 85% for all but the lowest level (0.16 μg/mL, 80%)."}, "[2]": {"test": "2-hydroxyadipate dehydrogenase activity of crude bacterial lysates expressing ScHIDH mutants", "conditions": "for reaction rate relative to ScHIDH-R143H: crude lysates, 15 mM 2-oxoadipate; for 2-hydroxyadipate dehydrogenase activity in crude bacterial lysates: 100 μM NADH substrate", "method": "To obtain crude lysates, 0.5 mL of starter cultures generated as described above were added to 4.5 mL LB-Amp, shaken for 2 h, and shaken for an additional 2 h after induction with 1 mM IPTG. Pellets from these cultures were harvested by centrifugation at 4500×g at 4° C. These pellets were resuspended into 500 μL of Buffer A (0.2% Triton-X 100, 1 mM PMSF, 0.5 mM EDTA, 10 mM Tris, pH 7.5) on ice and sonicated for 6-cycles of 15 seconds each on ice on a Sonifer 250 (Branson). This was then spun down at 13,000×g at 4° C. for 15 min and the cleared lysates were normalized with additional lysis buffer to 700 ng/4 and stored at −80° C. as aliquots. Protein concentrations were determined using the BioRad Protein Assay reagent according to the manufacturer's instructions.\n(§1) NADH, 2-oxoadipate, 2-oxoglutarate, 2-heptandioate, and MgCl2 were from Sigma. Standard reaction mixes contained 15 mM 2-oxoadipate, 100 μM NADH, and a reaction buffer with final concentrations of 20 mM MgCl2 and 500 mM HEPES, pH 7.3. NADH oxidation was monitored by the decrease in fluorescence with excitation of 340 nm and emission of 450 nm on a PolarSTAR Optima plate reader (BMG Labtech). Fluorescence monitored reactions were carried out in 10-μL volumes in a 384-well black microplate (Greiner 788076) covered with clear optical film. The levels of fluorescence were converted to NADH concentrations based on standards of NADH in reaction buffer containing BSA. Reactions with high amounts of NADH were monitored by the UV absorbance of NADH at 340 nm in 40-μL reaction volumes in clear 96-well plates.\n(§2) Reaction rates are NADH oxidation per unit time per unit of purified enzyme or crude lysate and 1 Unit (U) is 1 μmolNADH min^−1 mgenzyme^−1. Rates are initial rates calculated by least squares linear regression on the first 10 minutes of the reaction. For KM determination, concentrations of substrate/cofactors at least 5×-higher than the KM were used, while the species of interest was varied in concentration; substrate/cofactor concentrations: 500 μM NADH; 15 mM 2-oxoadipate; 20 mM MgCl2. Reported α-hydroxyadipate (2-hydroxy adpic acid) Vmax values were obtained from 2-oxoadipate KM determination experiments. Michaelis-Menten KM and Vmax parameters were estimated by fitting data to a curve using nonlinear regression in GraphPad Prism 5.0 (GraphPad Software, La Jolla, Calif.)."}, "[3]": {"test": "Kinetic characterization of ScHIDH mutants: KM 2-oxoadipate and Vmax", "conditions": "for Km / Vmax: Table 3; for Km: 40 ng/μL enzyme, 500 μM NADH, 20 mM MgCl2, pH 7.3, 25° C.; for Vmax: from 2-oxoadipate KM experiments", "method": "as §2\n(§3) Assays were performed with 40 ng/μL enzyme, 15 mM 2-oxoadipate, 100 μM NADH, 20 mM MgCl2 and 100 mM HEPES, pH 7.3 in 10 or 20 μL volumes in 384-well black microplates. NADH concentration was monitored by the decrease in fluorescence (excitation wavelength: 340 nm; emission wavelength: 450 nm) on a fluorescent plate reader. The fluorescence intensities were converted to NADH concentrations based on NADH standards. Reactions with high amounts of NADH (>300 μM) were monitored by the UV absorbance of NADH at 340 nm in a 40 μL reaction volume in a clear 96-well plate on the same plate reader. Reactions with ScHIDH were carried out at 25° C. and reactions with TtHIDH were carried out at 45° C. Reported rates are initial rates from the first 10 minutes of reaction. For KM determination, concentrations of substrate at least 5×-higher than the KM were used (for NADH, 500 μM; for 2-oxoadipate, 15 mM) while the substrate of interest was varied in concentration. KM and Vmax were estimated by fitting data to equation (1) using nonlinear regression, where x is substrate concentration and y is the rate. y=Vmax·x/KM+x (1) Rate data for ScHIDH-R143C, -R143H, and -R143K are summarized in Table 3."}, "[4]": {"test": "Kinetic characterization of ScHIDH mutants: KM NADH", "conditions": "Table 3; 15 mM 2-oxoadipate, 20 mM MgCl2, pH 7.3, 25° C.", "method": "as §2, §3"}, "[5]": {"test": "NADH oxidation rate of purified HIDH enzymes with 2-oxoadipate (fluorescence / UV 340 nm)", "conditions": "100 μM NADH", "method": "as §1, §2, §3"}, "[6]": {"test": "NADH oxidation with 2-oxoadipate plus CO2 added as NaHCO3 (reductive carboxylation)", "method": "as §1, §2"}}, "note": "Numbering of substitutions follows the chain as printed. Names may count otherwise. “Also recorded” adds a separate entry of the source."}
{"molecule": "B1", "values": [{"measurement": "Enantiomeric Excess", "setting": "[1]", "value": "> 92", "unit": "%"}, {"measurement": "reaction rate relative to ScHIDH-R143H", "setting": "[2]; 800 μM NADH", "value": "83.0±0.03", "unit": "%"}, {"measurement": "reaction rate relative to ScHIDH-R143H", "setting": "[2]; standard conditions of 100 μM NADH", "value": "3.6±0.3", "unit": "%"}, {"measurement": "Km", "setting": "[3]", "value": 9.4, "unit": "mM"}, {"measurement": "Vmax", "setting": "[3]", "value": 0.011, "unit": "µmol/min/mg"}, {"measurement": "Km", "setting": "[4]", "value": 1100, "unit": "µM"}]}
{"molecule": "B2", "values": [{"measurement": "Enantiomeric Excess", "setting": "[1]", "value": "> 99.2", "unit": "%"}, {"measurement": "2-hydroxyadipate dehydrogenase activity in crude bacterial lysates", "setting": "[2]", "value": "did not demonstrate 2-hydroxyadipate dehydrogenase activity"}, {"measurement": "Km", "setting": "[3]", "value": 11, "unit": "mM"}, {"measurement": "Vmax", "setting": "[3]", "value": 0.065, "unit": "µmol/min/mg"}, {"measurement": "maximal turnover compared with other ScHIDH mutants", "setting": "[3]; in vitro data", "value": "highest maximal turnover of any ScHIDH mutant assayed"}, {"measurement": "Km", "setting": "[4]", "value": 320, "unit": "µM"}]}
{"molecule": "B3", "values": [{"measurement": "2-hydroxyadipate dehydrogenase activity in crude bacterial lysates", "setting": "[2]", "value": "did not demonstrate 2-hydroxyadipate dehydrogenase activity"}]}
{"molecule": "B4", "values": [{"measurement": "2-hydroxyadipate dehydrogenase activity in crude bacterial lysates", "setting": "[2]", "value": "did not demonstrate 2-hydroxyadipate dehydrogenase activity"}]}
{"molecule": "B5", "values": [{"measurement": "2-hydroxyadipate dehydrogenase activity in crude bacterial lysates", "setting": "[2]", "value": "did not demonstrate 2-hydroxyadipate dehydrogenase activity"}]}
{"molecule": "B6", "values": [{"measurement": "NADH oxidation by purified enzyme in the presence of 2-oxoadipate", "setting": "[5]; standard reaction conditions, 10 mM 2-oxoadipate, 20 mM MgCl2", "value": "behaved essentially the same as wild type; also recorded: did not oxidize NADH"}, {"measurement": "NADH oxidation when CO2 was provided as NaHCO3", "setting": "[6]; purified enzyme, 15 mM 2-oxoadipate, 100 μM NADH, 0-42 mM NaHCO3", "value": "did oxidize NADH"}, {"measurement": "2-hydroxyadipate dehydrogenase activity in crude bacterial lysates", "setting": "[2]", "value": "did not demonstrate 2-hydroxyadipate dehydrogenase activity"}]}
{"molecule": "B7", "values": [{"measurement": "decrease of NADH concentration after 2 h", "setting": "[5]; TtHIDH, 15 mM 2-oxoadipate, 45° C., 2 h", "value": 61.3, "unit": "µM"}, {"measurement": "initial rate of NADH oxidation", "setting": "[5]; TtHIDH, 15 mM 2-oxoadipate, 45° C., U = μmol NADH min^−1 mg^−1", "value": "0.058±0.0031", "unit": "U"}, {"measurement": "rate of NADH consumption with NaHCO3 added", "setting": "[6]; TtHIDH, 2-oxoadipate and NADH, CO2 added as NaHCO3", "value": 0.059, "unit": "U"}, {"measurement": "increase of (R)-2-hydroxyadipate concentration after 2 h", "setting": "[1]; TtHIDH, 100 μM NADH, 15 mM 2-oxoadipate, 45° C., 2 h", "value": 61.3, "unit": "µM"}, {"measurement": "increase of (S)-2-hydroxyadipate", "setting": "[1]; TtHIDH, same reaction, 2 h", "value": "No increase"}]}
